Literature values in article PMC9987997.

Experiments:
[1] = target: Scribble PDZ1 (Homo sapiens) (UniProt Q14160); experiment: ITC
[2] = target: Scribble PDZ4 (Homo sapiens) (UniProt Q14160); experiment: ITC

## NS1 (ESEV PBM) PBM (from UniProt Q8QPI8)
[1]
  Kd: 21.4 µM
[2]
  Kd: 12.2 µM
